B1: Neurovirulence factor ICP34.5 (Human herpesvirus 1 (strain 17) (HHV-1)), P36313 (parent)
chain: MARRRRHRGPRRPRPPGPTGAVPTAQSQVTSTPNSEPAVRSAPAAAPPPPPAGGPPPSCSLLLRQWLHVPESASDDDDDDDWPDSPPPEPAPEARPTAAAPRPRPPPPGVGPGGGADPSHPPSRPFRLPPRLALRLRVTAEHLARLRLRRAGGEGAPEPPATPATPATPATPATPARVRFSPHVRVRHLVVWASAARLARRGSWARERADRARFRRRVAEAEAVIGPCLGPEARARALARGAGPANSV

One assay covers variants of B1. As to conditions: with pp1a_human PPP1CA.
For the variant R236D, the “effect of a mutation on the interaction” value is “decreasing interaction”.

The variants in the next assay derive from B1. As to conditions: with pp1a_human PPP1CA. This is another data set of the same source.
Regarding R234E, the “effect of a mutation on the interaction” value is reported as “decreasing interaction”.

In the next assay the parent is B1. As to conditions: with pp1a_human PPP1CA. The source holds these as a separate data set.
With V178E;F180L, the “effect of a mutation on the interaction” value is on record as “decreasing interaction”.

A further assay covers variants of B1. The conditions noted are these: with pp1a_human PPP1CA. The source holds these as a separate data set.
In the case of V178E;F180L, the “effect of a mutation on the interaction” value is reported as “disrupting interaction”.

The values above are taken from IntAct's records for PubMed 18068675.
